Laboratory results published in paper PMC10370059 (bioRxiv, 2023).
Values belong to the molecule of their own block, whether it stands above or below them.

Assays:
[1] = biological target: biotinylated Arr3_ΔC loaded with IP6 (bovine) (UniProt P32120); test: SEC
[2] = biological target: biotinylated Arr3_ΔC loaded with IP6 (bovine, UniProt P32120, biotin (sulfo-NHS-Biotin, >95% biotinylated)); test: ELISA
[3] = biological target: Arr3_ΔC (preactivated arrestin3, truncated after residue 392) (bovine, UniProt P32120); test: pull-down

stoichiometry N [1]: 3
Molecule: biotinylated Arr3_ΔC loaded with IP6 (from UniProt P32120 1-392) (domain or fragment)

binding result [2]: binds | binding result [3]: binds
B1: Fab7 (Fab, V domains shown)
VH: EVQLVESGGGLVQPGGSLRLSCAASGFNVSSSYIHWVRQAPGKGLEWVASISSYYGYTYYADSVKGRFTISADTSKNTAYLQMNSLRAEDTAVYYCARKSMYHRGWGWLSWVYGAMDYWGQGTLVTVSS
VL: DIQMTQSPSSLSASVGDRVTITCRASQSVSSAVAWYQQKPGKAPKLLIYSASSLYSGVPSRFSGSRSGTDFTLTISSLQPEDFATYYCQQSYYYPITFGQGTKVEIK
